Tests used:
MBP-FoxP3dN;NFAT1 DBD [1] = molecular target: T1, MBP-FoxP3dN;NFAT1 DBD (Mus musculus;Mus musculus?, UniProt Q99JB6;Q60591 188-423;394-680, |); assay: pull-down; NFAT enhances binding; Pull-down: 20 mM Tris-HCl pH 7.5, 100 mM NaCl, 1.5 mM MgCl2, room temperature, 0.4 uM MBP protein, 0.1 uM DNA (NFAT 0.2 uM); EMSA: 20 mM HEPES pH 7.5, 150 mM NaCl, 1.5 mM MgCl2, 2 mM DTT, 4 C, 0.2 uM DNA (RBR-FKH 0.8 uM, NFAT 0.4 uM); details: protein: recombinant;recombinant; tags: His6-MBP;none (His6-NusA cleaved); chain copies: 2;1; blunt
T1 sequence 1: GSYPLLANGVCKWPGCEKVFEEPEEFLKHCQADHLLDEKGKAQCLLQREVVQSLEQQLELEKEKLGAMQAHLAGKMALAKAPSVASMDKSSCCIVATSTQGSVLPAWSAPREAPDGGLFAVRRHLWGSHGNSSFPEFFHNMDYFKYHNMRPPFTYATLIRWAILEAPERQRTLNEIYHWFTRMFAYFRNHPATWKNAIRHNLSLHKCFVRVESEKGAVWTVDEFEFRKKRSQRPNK
T1 sequence 2: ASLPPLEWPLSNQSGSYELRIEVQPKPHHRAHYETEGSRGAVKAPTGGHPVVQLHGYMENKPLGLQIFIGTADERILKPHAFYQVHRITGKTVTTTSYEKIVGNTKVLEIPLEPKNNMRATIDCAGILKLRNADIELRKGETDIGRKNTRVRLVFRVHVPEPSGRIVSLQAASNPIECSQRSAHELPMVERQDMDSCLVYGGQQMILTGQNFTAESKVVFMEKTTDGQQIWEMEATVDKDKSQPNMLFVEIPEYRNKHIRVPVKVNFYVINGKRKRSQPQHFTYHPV

MBP-FoxP3dN [2] = molecular target: T2, MBP-FoxP3dN (Mus musculus, UniProt Q99JB6 188-423); assay: pull-down; comparable to IR-FKHM; Pull-down: 20 mM Tris-HCl pH 7.5, 100 mM NaCl, 1.5 mM MgCl2, room temperature, 0.4 uM MBP protein, 0.1 uM DNA (NFAT 0.2 uM); EMSA: 20 mM HEPES pH 7.5, 150 mM NaCl, 1.5 mM MgCl2, 2 mM DTT, 4 C, 0.2 uM DNA (RBR-FKH 0.8 uM, NFAT 0.4 uM); details: protein: recombinant; tags: His6-MBP; chain copies: 2; blunt
T2 sequence: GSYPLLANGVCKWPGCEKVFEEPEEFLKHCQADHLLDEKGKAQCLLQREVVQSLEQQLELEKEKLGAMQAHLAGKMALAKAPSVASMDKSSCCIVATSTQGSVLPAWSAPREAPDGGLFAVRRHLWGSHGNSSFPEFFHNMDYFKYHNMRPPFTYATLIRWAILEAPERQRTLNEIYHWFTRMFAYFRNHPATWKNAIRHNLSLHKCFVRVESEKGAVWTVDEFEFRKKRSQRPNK
Procedure, shortened: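 0.4 µM MBP-tagged mouse FoxP3 fragment (plus 0.2 µM NFAT fragment where included) was mixed with 0.1 µM duplex DNA in Tris buffer with NaCl and MgCl2 at room temperature. Complexes were captured on amylose resin, and proteinase K-released DNA was run on 10% TBE gels stained with SYBR Gold. In a gel-shift arm, 0.2 µM DNA and protein were held 10 min at 4 °C in HEPES buffer, then run on native gels. Binding was judged qualitatively from gels.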

MBP-FoxP3dN [3] = molecular target: T2, MBP-FoxP3dN; assay: pull-down; Pull-down: 20 mM Tris-HCl pH 7.5, 100 mM NaCl, 1.5 mM MgCl2, room temperature, 0.4 uM MBP protein, 0.1 uM DNA (NFAT 0.2 uM); EMSA: 20 mM HEPES pH 7.5, 150 mM NaCl, 1.5 mM MgCl2, 2 mM DTT, 4 C, 0.2 uM DNA (RBR-FKH 0.8 uM, NFAT 0.4 uM); details: protein: recombinant; tags: His6-MBP; chain copies: 2; blunt
[4] = molecular target: T3, FoxP1RBR-FoxP3FKH;NFAT1 DBD (Mus musculus;Mus musculus?, UniProt P58462;Q60591 427-492+Q99JB6:337-423;394-680, internal_change|); assay: EMSA; monomer; Pull-down: 20 mM Tris-HCl pH 7.5, 100 mM NaCl, 1.5 mM MgCl2, room temperature, 0.4 uM MBP protein, 0.1 uM DNA (NFAT 0.2 uM); EMSA: 20 mM HEPES pH 7.5, 150 mM NaCl, 1.5 mM MgCl2, 2 mM DTT, 4 C, 0.2 uM DNA (RBR-FKH 0.8 uM, NFAT 0.4 uM); details: protein: recombinant;recombinant; tags: none (His6-NusA cleaved);none (His6-NusA cleaved); copies: 1;1; blunt
T3 sequence 1: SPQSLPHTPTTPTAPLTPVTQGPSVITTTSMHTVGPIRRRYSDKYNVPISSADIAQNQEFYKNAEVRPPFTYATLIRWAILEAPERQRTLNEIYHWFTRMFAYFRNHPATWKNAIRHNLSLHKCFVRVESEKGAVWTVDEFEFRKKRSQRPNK
T3 sequence 2: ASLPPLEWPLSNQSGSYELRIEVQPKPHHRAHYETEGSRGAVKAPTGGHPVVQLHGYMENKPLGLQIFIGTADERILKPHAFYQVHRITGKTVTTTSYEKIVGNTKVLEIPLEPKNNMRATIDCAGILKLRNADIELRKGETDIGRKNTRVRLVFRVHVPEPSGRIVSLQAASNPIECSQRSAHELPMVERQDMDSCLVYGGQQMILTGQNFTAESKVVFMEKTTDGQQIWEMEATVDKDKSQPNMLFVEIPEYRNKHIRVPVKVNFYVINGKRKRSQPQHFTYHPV

FoxP1 RBR-FKH;NFAT1 DBD = molecular target: T4, FoxP1 RBR-FKH;NFAT1 DBD (Mus musculus;Mus musculus?, UniProt P58462;Q60591 427-579;394-680, |); assay: as above; details: protein: recombinant;recombinant; tags: none (His6-NusA cleaved);none (His6-NusA cleaved); copies: 1;1; blunt
T4 sequence 1: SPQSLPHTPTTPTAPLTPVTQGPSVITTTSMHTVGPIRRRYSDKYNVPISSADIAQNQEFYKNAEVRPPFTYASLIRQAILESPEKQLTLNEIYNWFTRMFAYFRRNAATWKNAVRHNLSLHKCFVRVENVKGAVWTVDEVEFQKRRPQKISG
T4 sequence 2: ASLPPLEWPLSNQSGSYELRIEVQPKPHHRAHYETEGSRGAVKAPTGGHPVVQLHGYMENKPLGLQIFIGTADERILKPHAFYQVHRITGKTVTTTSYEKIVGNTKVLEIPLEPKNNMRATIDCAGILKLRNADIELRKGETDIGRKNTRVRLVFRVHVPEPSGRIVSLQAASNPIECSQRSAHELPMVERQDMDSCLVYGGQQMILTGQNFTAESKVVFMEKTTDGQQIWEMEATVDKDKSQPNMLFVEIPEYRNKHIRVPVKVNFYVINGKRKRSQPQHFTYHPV

[5] = molecular target: T5, FoxP3RBR-FoxP1FKH;NFAT1 DBD (Mus musculus;Mus musculus?, UniProt Q99JB6;Q60591 284-336+P58462:493-579;394-680, internal_change|); assay: EMSA; dimer; Pull-down: 20 mM Tris-HCl pH 7.5, 100 mM NaCl, 1.5 mM MgCl2, room temperature, 0.4 uM MBP protein, 0.1 uM DNA (NFAT 0.2 uM); EMSA: 20 mM HEPES pH 7.5, 150 mM NaCl, 1.5 mM MgCl2, 2 mM DTT, 4 C, 0.2 uM DNA (RBR-FKH 0.8 uM, NFAT 0.4 uM); details: protein: recombinant;recombinant; tags: none (His6-NusA cleaved);none (His6-NusA cleaved); chain copies: 2;1; blunt
T5 sequence 1: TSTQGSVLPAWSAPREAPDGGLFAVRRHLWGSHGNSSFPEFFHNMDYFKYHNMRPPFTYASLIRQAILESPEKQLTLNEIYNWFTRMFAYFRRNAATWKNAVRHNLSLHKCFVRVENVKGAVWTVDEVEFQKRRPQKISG
T5 sequence 2: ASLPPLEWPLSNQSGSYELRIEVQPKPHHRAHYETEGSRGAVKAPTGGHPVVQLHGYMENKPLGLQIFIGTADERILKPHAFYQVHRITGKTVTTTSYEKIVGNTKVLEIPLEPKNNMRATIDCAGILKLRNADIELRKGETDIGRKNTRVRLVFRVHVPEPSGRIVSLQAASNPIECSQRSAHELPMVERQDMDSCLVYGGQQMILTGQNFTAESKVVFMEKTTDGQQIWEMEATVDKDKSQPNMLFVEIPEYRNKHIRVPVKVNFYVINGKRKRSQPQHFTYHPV

FoxP3 RBR-FKH;NFAT1 DBD = molecular target: T6, FoxP3 RBR-FKH;NFAT1 DBD (Mus musculus;Mus musculus?, UniProt Q99JB6;Q60591 284-423;394-680, |); assay: as above; details: protein: recombinant;recombinant; tags: none (His6-NusA cleaved);none (His6-NusA cleaved); copies: 1;1; blunt
T6 sequence 1: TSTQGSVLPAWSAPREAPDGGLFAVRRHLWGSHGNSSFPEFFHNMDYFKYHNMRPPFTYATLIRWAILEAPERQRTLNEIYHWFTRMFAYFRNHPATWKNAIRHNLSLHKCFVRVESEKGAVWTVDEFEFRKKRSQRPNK
T6 sequence 2: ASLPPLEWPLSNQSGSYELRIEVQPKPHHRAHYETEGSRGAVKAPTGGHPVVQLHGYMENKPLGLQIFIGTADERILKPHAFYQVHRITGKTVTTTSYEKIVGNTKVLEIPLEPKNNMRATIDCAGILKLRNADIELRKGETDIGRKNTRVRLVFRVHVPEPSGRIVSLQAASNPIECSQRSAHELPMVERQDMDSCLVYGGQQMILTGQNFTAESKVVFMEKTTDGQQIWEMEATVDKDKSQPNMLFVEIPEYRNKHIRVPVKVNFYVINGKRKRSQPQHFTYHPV

MBP-FoxP3dN;NFAT1 DBD [6] = molecular target: T1, MBP-FoxP3dN;NFAT1 DBD; assay: pull-down; optimal NFAT cooperativity; Pull-down: 20 mM Tris-HCl pH 7.5, 100 mM NaCl, 1.5 mM MgCl2, room temperature, 0.4 uM MBP protein, 0.1 uM DNA (NFAT 0.2 uM); EMSA: 20 mM HEPES pH 7.5, 150 mM NaCl, 1.5 mM MgCl2, 2 mM DTT, 4 C, 0.2 uM DNA (RBR-FKH 0.8 uM, NFAT 0.4 uM); details: protein: recombinant;recombinant; tags: His6-MBP;none (His6-NusA cleaved); chain copies: 2;1; blunt

B1: Var2 (dsDNA)
DNA 1: TTAGGAAATTTGCGCATCTCGAGTAAACAAATTT
DNA 2: AAATTTGTTTACTCGAGATGCGCAAATTTCCTAA
MBP-FoxP3dN;NFAT1 DBD [1]
  binding result: binds

B2: DNA 5 (Fig S1F) (dsDNA)
DNA 1: AATTTGTGTTTATCGAGTAAACAAATTT
DNA 2: AAATTTGTTTACTCGATAAACACAAATT
MBP-FoxP3dN [2]
  binding result: binds

B3: DNA 4 (Fig S1F) (dsDNA)
DNA 1: AATTTTGTTTATTCGAGTAAACAAATTT
DNA 2: AAATTTGTTTACTCGAATAAACAAAATT
MBP-FoxP3dN [2]
  binding result: binds

B4: DNA 8 (Fig S1F) (dsDNA)
DNA 1: AATTTGTGTTGTTCGAGTAAACAAATTT
DNA 2: AAATTTGTTTACTCGAACAACACAAATT
MBP-FoxP3dN [2]
  binding result: binds

B5: IR-FKHM (Fig 1C) (dsDNA)
DNA 1: TAGGAAAATTTGTTTACTCGAGTAAACATC
DNA 2: GATGTTTACTCGAGTAAACAAATTTTCCTA
MBP-FoxP3dN [3]
  binding result: binds

B6: DNA1 (NFAT IR-FKHM) (dsDNA)
DNA 1: TTAGGAAAATTTGTTTACTCGAGTAAACAAA
DNA 2: TTTGTTTACTCGAGTAAACAAATTTTCCTAA
[4]
  binding result: binds
FoxP1 RBR-FKH;NFAT1 DBD
  binding result: binds
[5]
  binding result: binds
FoxP3 RBR-FKH;NFAT1 DBD
  binding result: binds

B7: DNA 10 (Fig S1F) (dsDNA)
DNA 1: AATTTGTTGCATTCGAGTAAACAAATTT
DNA 2: AAATTTGTTTACTCGAATGCAACAAATT
MBP-FoxP3dN [2]
  binding result: binds

B8: DNA 6 (Fig S1F) (dsDNA)
DNA 1: AATTTGCGCATTTCGAGTAAACAAATTT
DNA 2: AAATTTGTTTACTCGAAATGCGCAAATT
MBP-FoxP3dN [2]
  binding result: binds

B9: DNA 7 (Fig S1F) (dsDNA)
DNA 1: AATTTGCCGCATTCGAGTAAACAAATTT
DNA 2: AAATTTGTTTACTCGAATGCGGCAAATT
MBP-FoxP3dN [2]
  binding result: binds

B10: DNA 9 (Fig S1F) (dsDNA)
DNA 1: AATTTGTGCATCTCGAGTAAACAAATTT
DNA 2: AAATTTGTTTACTCGAGATGCACAAATT
MBP-FoxP3dN [2]
  binding result: binds

B11: DNA 2 (Fig S1F) (dsDNA)
DNA 1: AATTTTGTTGTGTCGAGTAAACAAATTT
DNA 2: AAATTTGTTTACTCGACACAACAAAATT
MBP-FoxP3dN [2]
  binding result: binds

B12: Var7 (dsDNA)
DNA 1: TTAGGAAATTTGTGCATTCGAGTAAACAAATTT
DNA 2: AAATTTGTTTACTCGAATGCACAAATTTCCTAA
MBP-FoxP3dN;NFAT1 DBD [6]
  binding result: binds

B13: DNA 1 (Fig S1F) (dsDNA)
DNA 1: AATTTGCGCATCTCGAGTAAACAAATTT
DNA 2: AAATTTGTTTACTCGAGATGCGCAAATT
MBP-FoxP3dN [2]
  binding result: binds

B14: DNA 3 (Fig S1F) (dsDNA)
DNA 1: AATTTTGTGCATTCGAGTAAACAAATTT
DNA 2: AAATTTGTTTACTCGAATGCACAAAATT
MBP-FoxP3dN [2]
  binding result: binds

— publication PMC12820563, “FoxP3 forms a head-to-head dimer in vivo and stabilizes its multimerization on adjacent microsatellites”
